Laboratory results reported in doi:10.1101/327320.

Tests used:
Experiment in all cases: EMSA
Hrq1 = molecular target: T1, Hrq1 (Saccharomyces cerevisiae, UniProt Q05549 1-1077)
T1 sequence: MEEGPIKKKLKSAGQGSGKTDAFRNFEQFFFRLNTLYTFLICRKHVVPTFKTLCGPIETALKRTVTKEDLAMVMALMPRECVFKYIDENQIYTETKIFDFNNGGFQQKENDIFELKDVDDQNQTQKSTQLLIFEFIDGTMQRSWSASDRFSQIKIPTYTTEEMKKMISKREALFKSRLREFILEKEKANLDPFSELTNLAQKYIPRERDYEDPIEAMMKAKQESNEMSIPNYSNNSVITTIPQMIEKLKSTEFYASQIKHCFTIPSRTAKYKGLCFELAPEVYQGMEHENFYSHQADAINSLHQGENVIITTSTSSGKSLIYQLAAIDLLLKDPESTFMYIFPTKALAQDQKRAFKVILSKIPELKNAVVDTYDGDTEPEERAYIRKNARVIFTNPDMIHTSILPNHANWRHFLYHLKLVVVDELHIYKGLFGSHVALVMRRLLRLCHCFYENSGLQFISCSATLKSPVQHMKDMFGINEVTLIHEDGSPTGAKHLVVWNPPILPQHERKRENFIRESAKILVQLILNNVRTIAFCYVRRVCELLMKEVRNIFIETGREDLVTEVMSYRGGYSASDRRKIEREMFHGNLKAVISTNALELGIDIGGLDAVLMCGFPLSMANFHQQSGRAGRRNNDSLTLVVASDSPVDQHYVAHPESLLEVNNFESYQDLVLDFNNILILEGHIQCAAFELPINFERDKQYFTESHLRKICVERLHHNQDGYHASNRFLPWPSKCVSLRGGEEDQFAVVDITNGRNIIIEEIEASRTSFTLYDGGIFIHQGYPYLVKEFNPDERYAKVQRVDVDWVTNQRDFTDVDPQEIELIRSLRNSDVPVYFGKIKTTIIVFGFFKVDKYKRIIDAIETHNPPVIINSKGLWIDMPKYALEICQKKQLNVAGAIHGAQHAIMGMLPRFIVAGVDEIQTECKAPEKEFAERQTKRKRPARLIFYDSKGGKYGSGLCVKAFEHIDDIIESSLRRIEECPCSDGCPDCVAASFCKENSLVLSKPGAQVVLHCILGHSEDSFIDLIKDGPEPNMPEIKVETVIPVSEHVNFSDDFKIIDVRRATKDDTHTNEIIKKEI

Pif1-K264A = molecular target: T2, Pif1-K264A (Saccharomyces cerevisiae, UniProt P07271 1-859, K264A)
T2 sequence: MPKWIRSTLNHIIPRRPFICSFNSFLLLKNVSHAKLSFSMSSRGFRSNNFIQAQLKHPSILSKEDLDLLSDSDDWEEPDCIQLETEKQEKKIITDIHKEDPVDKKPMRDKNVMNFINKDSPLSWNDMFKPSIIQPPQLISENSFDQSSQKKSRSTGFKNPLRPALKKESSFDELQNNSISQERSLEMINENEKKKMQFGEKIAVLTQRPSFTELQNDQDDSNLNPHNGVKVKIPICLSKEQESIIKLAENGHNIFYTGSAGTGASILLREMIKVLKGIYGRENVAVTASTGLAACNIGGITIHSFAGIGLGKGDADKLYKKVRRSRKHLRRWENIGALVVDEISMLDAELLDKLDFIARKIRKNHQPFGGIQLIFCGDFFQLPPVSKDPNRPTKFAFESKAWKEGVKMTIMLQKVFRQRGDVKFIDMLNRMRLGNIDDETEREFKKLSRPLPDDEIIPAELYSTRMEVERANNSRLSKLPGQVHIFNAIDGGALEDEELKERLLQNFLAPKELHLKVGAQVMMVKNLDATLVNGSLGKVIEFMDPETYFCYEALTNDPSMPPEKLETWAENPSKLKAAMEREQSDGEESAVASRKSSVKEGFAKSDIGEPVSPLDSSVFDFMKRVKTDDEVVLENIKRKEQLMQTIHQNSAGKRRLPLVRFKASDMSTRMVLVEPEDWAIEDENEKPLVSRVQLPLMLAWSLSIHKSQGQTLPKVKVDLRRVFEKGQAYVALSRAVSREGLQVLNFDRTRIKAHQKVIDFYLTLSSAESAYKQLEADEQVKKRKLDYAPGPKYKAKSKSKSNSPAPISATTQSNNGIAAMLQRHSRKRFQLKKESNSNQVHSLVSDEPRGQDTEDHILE

Pif1 = molecular target: T3, Pif1 (Saccharomyces cerevisiae, UniProt P07271 1-859)
T3 sequence: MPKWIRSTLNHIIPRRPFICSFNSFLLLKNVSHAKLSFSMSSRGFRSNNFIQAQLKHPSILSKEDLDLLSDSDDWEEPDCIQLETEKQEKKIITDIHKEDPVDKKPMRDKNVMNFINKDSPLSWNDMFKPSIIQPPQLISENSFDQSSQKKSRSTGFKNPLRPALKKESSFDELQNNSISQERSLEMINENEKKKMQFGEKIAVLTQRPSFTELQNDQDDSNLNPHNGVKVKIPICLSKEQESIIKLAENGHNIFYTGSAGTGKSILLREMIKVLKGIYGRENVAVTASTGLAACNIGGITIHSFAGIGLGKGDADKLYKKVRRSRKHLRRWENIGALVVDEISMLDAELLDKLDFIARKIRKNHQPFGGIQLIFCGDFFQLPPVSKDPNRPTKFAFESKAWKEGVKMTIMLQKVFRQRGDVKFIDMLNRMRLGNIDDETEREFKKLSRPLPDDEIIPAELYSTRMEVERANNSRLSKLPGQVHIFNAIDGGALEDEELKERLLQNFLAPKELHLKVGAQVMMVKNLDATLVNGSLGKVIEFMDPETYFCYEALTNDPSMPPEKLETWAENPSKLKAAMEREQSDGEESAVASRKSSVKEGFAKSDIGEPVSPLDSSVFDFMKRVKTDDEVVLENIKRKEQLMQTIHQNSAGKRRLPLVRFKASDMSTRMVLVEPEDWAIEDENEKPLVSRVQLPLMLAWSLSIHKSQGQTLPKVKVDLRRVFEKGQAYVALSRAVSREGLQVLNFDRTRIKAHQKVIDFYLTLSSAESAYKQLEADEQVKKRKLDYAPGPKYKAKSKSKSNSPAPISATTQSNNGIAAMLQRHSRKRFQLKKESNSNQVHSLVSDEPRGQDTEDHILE

Hrq1-K318A = molecular target: T4, Hrq1-K318A (Saccharomyces cerevisiae, UniProt Q05549 1-1077, K318A)
T4 sequence: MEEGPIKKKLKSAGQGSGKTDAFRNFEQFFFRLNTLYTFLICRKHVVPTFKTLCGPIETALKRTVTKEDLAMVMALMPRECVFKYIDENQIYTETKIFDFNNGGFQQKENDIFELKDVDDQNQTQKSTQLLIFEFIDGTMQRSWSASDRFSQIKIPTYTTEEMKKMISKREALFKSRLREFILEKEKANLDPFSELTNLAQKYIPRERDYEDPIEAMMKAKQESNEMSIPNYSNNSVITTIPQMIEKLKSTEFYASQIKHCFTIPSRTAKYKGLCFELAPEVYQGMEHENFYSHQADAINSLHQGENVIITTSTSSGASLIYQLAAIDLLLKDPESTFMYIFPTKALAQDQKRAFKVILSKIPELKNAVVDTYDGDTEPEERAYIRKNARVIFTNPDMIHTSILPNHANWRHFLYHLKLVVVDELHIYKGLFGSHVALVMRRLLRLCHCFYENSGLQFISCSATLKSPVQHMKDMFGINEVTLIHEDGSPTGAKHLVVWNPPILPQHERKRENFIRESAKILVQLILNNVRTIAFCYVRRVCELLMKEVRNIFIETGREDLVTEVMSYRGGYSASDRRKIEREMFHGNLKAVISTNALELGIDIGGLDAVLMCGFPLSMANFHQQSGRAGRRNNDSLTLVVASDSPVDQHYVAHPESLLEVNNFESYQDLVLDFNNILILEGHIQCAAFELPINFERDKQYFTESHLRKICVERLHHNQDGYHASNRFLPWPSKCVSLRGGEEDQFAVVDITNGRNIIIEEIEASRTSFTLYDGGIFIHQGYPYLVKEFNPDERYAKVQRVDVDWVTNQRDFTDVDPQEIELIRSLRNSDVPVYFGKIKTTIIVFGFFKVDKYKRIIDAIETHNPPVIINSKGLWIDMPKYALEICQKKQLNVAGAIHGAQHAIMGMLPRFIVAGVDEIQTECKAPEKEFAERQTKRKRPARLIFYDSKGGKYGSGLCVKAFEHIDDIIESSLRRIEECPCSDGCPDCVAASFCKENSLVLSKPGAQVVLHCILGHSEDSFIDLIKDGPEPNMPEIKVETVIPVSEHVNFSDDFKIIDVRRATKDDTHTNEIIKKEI

Hrq1;Pif1 = Hrq1;Pif1 (Saccharomyces cerevisiae;Saccharomyces …, UniProt Q05549;P07271 1-1077;1-859, |)

TTTTTTTTTTTTTTTTTTTTTTTTT (ssDNA) [MB463 poly(dT) 25 nt] showed a Kd (Hrq1) of about 35 nM.

For TTTTTTTTTTTTTTTTTTTTTTTTT (ssDNA, 3'-terminal T25 is inverted dT (3'-3' linkage, two 5' ends, no free 3' end)) [MB1429 poly(dT) 25 nt with 3' inverted dT], the Kd (Hrq1) was about 35 nM.

CGCCATGCTGATCCGTGTGGTGTGTGTGGG (ssDNA) [Tel30] gave a Kd (Pif1-K264A) of 41.2 nM, a Kd (Pif1) of 33.5 nM and a Kd (Hrq1) of 16.1 nM. For the same binder, the Kd (Hrq1-K318A) was 105 nM.

GTGTGGGTGTGGTGTGGGTGTGGTGTGGGTGTGTGGTGTGGTGTGTGTGG (ssDNA) [Tel50]: binds (Hrq1;Pif1).

TGTGGTGTGTGTGGG (ssDNA) [Tel15]: binds (Pif1-K264A); binds (Pif1).
